Laboratory results taken from article PMC8863855.

Molecular target: CD19-Fc (CD19-IgG1 Fc fusion protein) (UniProt P15391)
Assay: flow cytometry on cells
Details: for response (% Normalized Binding): n=3 independent donor replicates, untransduced background subtracted, normalized for % CAR-expressing T-cells, read off a plot; for response (% of cells in CD19-Fc binding gate): one representative example, untransduced 2%, not normalized, CD19-Fc concentration not stated for this panel, parent: 46
[1] = CD19-Fc 1.0µg/mL, parent: est. 73
[2] = CD19-Fc 0.5µg/mL, parent: est. 65

| Substance | response (% Normalized Binding) [1] | response (% of cells in CD19-Fc binding gate) (myc+ 49% (parent F-2 myc+ 43%)) | response (% of cells in CD19-Fc binding gate) (myc+ 47% (parent F-2 myc+ 43%)) | response (% Normalized Binding) [2] | response (% of cells in CD19-Fc binding gate) (myc+ 43% (parent F-2 myc+ 43%)) | response (% of cells in CD19-Fc binding gate) (myc+ 78% (parent F-2 myc+ 43%)) | response (% of cells in CD19-Fc binding gate) (myc+ 46% (parent F-2 myc+ 43%)) |
| --- | --- | --- | --- | --- | --- | --- | --- |
| F-2 second generation (CD28+CD3ζ) CAR with the unmodified FMC63 scFv G01: VH CDR3 …>… (G>A at CDR3 position 5) | 4.4 | 2 | – | – | – | – | – |
| F-2 second generation (CD28+CD3ζ) CAR with the unmodified FMC63 scFv G02: VH CDR3 …>… (G>A at CDR3 position 6) | 5.6 | – | 2 | – | – | – | – |
| F-2 second generation (CD28+CD3ζ) CAR with the unmodified FMC63 scFv Y03: VH CDR3 …>… (Y>A at CDR3 position 4) | 8.6 | – | – | 1.2 | 4 | – | – |
| F-2 second generation (CD28+CD3ζ) CAR with the unmodified FMC63 scFv Y04: VH CDR3 …>… (Y>A at CDR3 position 8) | 65 | – | – | 41 | – | 28 | – |
| F-2 second generation (CD28+CD3ζ) CAR with the unmodified FMC63 scFv Y05: VH CDR3 …>… (Y>A at CDR3 position 12) | 100 | – | – | 70 | – | – | 64 |
